B1: CCDC70 (parent)
chain: FSFKVSRWMGLACFRSLAASSPSI
B2: CDC14A (parent)
chain: LWVQGDIFRSKLKNRPSSEGSINK

Variants of: B1
Test: protein stability index of a GFP-peptide fusion (GPS, HEK-293T) (PSI 1-6); higher = more stable
Details: c terminus: a fixed tail appended
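Also: lentivirally expressed fusions sorted by FACS into six bins by GFP to DsRed ratio, PSI derived from sequencing read proportions per bin multiplied by bin number.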

Variant	protein stability index
FSDKVSRWMGLACFRSLAASSPSI	1.63
FSNKVSRWMGLACFRSLAASSPSI	2.5
FSIKVSRWMGLACFRSLAASSPSI	2.92
FSRKVSRWMGLACFRSLAASSPSI	3.02
FSTKVSRWMGLACFRSLAASSPSI	1.83
FSCKVSRWMGLACFRSLAASSPSI	2.74
FSWKVSRWMGLACFRSLAASSPSI	1.82
FSSKVSRWMGLACFRSLAASSPSI	2.6
FSKKVSRWMGLACFRSLAASSPSI	1.39
FSVKVSRWMGLACFRSLAASSPSI	1.38
FSPKVSRWMGLACFRSLAASSPSI	2.57
FSQKVSRWMGLACFRSLAASSPSI	1.92
FSAKVSRWMGLACFRSLAASSPSI	3.33
FSEKVSRWMGLACFRSLAASSPSI	2.21
FSHKVSRWMGLACFRSLAASSPSI	1.87
FSLKVSRWMGLACFRSLAASSPSI	4.25
FSFKVKRWMGLACFRSLAASSPSI	2.24
FSFKVGRWMGLACFRSLAASSPSI	2.88
FSFKVERWMGLACFRSLAASSPSI	3.26
FSFKVFRWMGLACFRSLAASSPSI	1.69
FSFKVRRWMGLACFRSLAASSPSI	2.09
FSFKVARWMGLACFRSLAASSPSI	2.99

Variant	protein stability index
FSFKVCRWMGLACFRSLAASSPSI	2.82
FSFKVMRWMGLACFRSLAASSPSI	2.17
FSFKVVRWMGLACFRSLAASSPSI	4.41
FSFKVPRWMGLACFRSLAASSPSI	2.51
FSFKVIRWMGLACFRSLAASSPSI	2.7
FSFKVDRWMGLACFRSLAASSPSI	2.35
FSFKVLRWMGLACFRSLAASSPSI	2.29
FSFKVTRWMGLACFRSLAASSPSI	2.43
FSFKVWRWMGLACFRSLAASSPSI	3.02
FSFKVNRWMGLACFRSLAASSPSI	3.31
FSFKVQRWMGLACFRSLAASSPSI	3.43
FSFKVYRWMGLACFRSLAASSPSI	2.88
SSFKVSRWMGLACFRSLAASSPSI	1.38
YSFKVSRWMGLACFRSLAASSPSI	2.33
GSFKVSRWMGLACFRSLAASSPSI	2.57
WSFKVSRWMGLACFRSLAASSPSI	2.34
PSFKVSRWMGLACFRSLAASSPSI	2.2
CSFKVSRWMGLACFRSLAASSPSI	2.38
RSFKVSRWMGLACFRSLAASSPSI	2.08
ISFKVSRWMGLACFRSLAASSPSI	1.68
MSFKVSRWMGLACFRSLAASSPSI	4.47
ESFKVSRWMGLACFRSLAASSPSI	3.1

Variant	protein stability index
DSFKVSRWMGLACFRSLAASSPSI	1.25
NSFKVSRWMGLACFRSLAASSPSI	2.35
ASFKVSRWMGLACFRSLAASSPSI	2.36
LSFKVSRWMGLACFRSLAASSPSI	4.16
TSFKVSRWMGLACFRSLAASSPSI	2.53
KSFKVSRWMGLACFRSLAASSPSI	2.46
QSFKVSRWMGLACFRSLAASSPSI	2.12
FSFKDSRWMGLACFRSLAASSPSI	1.73
FSFKKSRWMGLACFRSLAASSPSI	2.28
FSFKRSRWMGLACFRSLAASSPSI	3.55
FSFKHSRWMGLACFRSLAASSPSI	2
FSFKQSRWMGLACFRSLAASSPSI	3.04
FSFKISRWMGLACFRSLAASSPSI	1.72
FSFKESRWMGLACFRSLAASSPSI	1.29
FSFKCSRWMGLACFRSLAASSPSI	2.92
FSFKGSRWMGLACFRSLAASSPSI	2.54
FSFKWSRWMGLACFRSLAASSPSI	2.13
FSFKASRWMGLACFRSLAASSPSI	3.24
FSFKFSRWMGLACFRSLAASSPSI	2.74
FSFKNSRWMGLACFRSLAASSPSI	2.78
FSFKTSRWMGLACFRSLAASSPSI	2.77
FSFKLSRWMGLACFRSLAASSPSI	2.22

Variant	protein stability index
FSFKYSRWMGLACFRSLAASSPSI	2.98
FSFKPSRWMGLACFRSLAASSPSI	2.21
FSFKMSRWMGLACFRSLAASSPSI	2.01
FSFKVSDWMGLACFRSLAASSPSI	2.9
FSFKVSHWMGLACFRSLAASSPSI	3.25
FSFKVSAWMGLACFRSLAASSPSI	2.22
FSFKVSGWMGLACFRSLAASSPSI	1.65
FSFKVSEWMGLACFRSLAASSPSI	3.4
FSFKVSCWMGLACFRSLAASSPSI	3.09
FSFKVSFWMGLACFRSLAASSPSI	2.69
FSFWVSRWMGLACFRSLAASSPSI	4.77
FSFSVSRWMGLACFRSLAASSPSI	3.25
FSFVVSRWMGLACFRSLAASSPSI	3.11
FSFMVSRWMGLACFRSLAASSPSI	2.34
FSFTVSRWMGLACFRSLAASSPSI	2.38
FSFLVSRWMGLACFRSLAASSPSI	3.31
FSFDVSRWMGLACFRSLAASSPSI	3.56
FSFEVSRWMGLACFRSLAASSPSI	1.92
FSFIVSRWMGLACFRSLAASSPSI	3.39
FSFYVSRWMGLACFRSLAASSPSI	3.24
FSFGVSRWMGLACFRSLAASSPSI	2.99
FSFPVSRWMGLACFRSLAASSPSI	1.65

Variant	protein stability index
FSFRVSRWMGLACFRSLAASSPSI	2.22
FSFNVSRWMGLACFRSLAASSPSI	2.51
FSFCVSRWMGLACFRSLAASSPSI	3.35
FSFAVSRWMGLACFRSLAASSPSI	2.38
FSFHVSRWMGLACFRSLAASSPSI	2.73
FGFKVSRWMGLACFRSLAASSPSI	1.56
FIFKVSRWMGLACFRSLAASSPSI	3.26
FQFKVSRWMGLACFRSLAASSPSI	3.39
FCFKVSRWMGLACFRSLAASSPSI	3.54
FKFKVSRWMGLACFRSLAASSPSI	2.59
FYFKVSRWMGLACFRSLAASSPSI	2.62
FVFKVSRWMGLACFRSLAASSPSI	1.84
FRFKVSRWMGLACFRSLAASSPSI	1.49
FPFKVSRWMGLACFRSLAASSPSI	2.37
FHFKVSRWMGLACFRSLAASSPSI	1.33
FDFKVSRWMGLACFRSLAASSPSI	2.19
FAFKVSRWMGLACFRSLAASSPSI	1.82
FMFKVSRWMGLACFRSLAASSPSI	2.1
FTFKVSRWMGLACFRSLAASSPSI	2.69
FNFKVSRWMGLACFRSLAASSPSI	2.32
FFFKVSRWMGLACFRSLAASSPSI	3.87

Variants of: B2
Test: as above
Details: c terminus: a fixed tail appended

Variant	protein stability index
LWVQGDIFRSKLKNRPSSEGRINK	1.73
LWVQGDIFRSKLKNRPSSEGAINK	2.77
LWVQGDIFRSKLKNRPSSEGMINK	2.15
LWVQGDIFRSKLKNRPSSEGIINK	2.08
LWVQGDIFRSKLKNRPSSEGNINK	2.18
LWVQGDIFRSKLKNRPSSEGCINK	2.64
LWVQGDIFRSKLKNRPSSEGYINK	2.22
LWVQGDIFRSKLKNRPSSEGKINK	2.42
LWVQGDIFRSKLKNRPSSEGPINK	3.06
LWVQGDIFRSKLKNRPSSEGQINK	3.15
LWVQGDIFRSKLKNRPSSEGEINK	3.65
LWVQGDIFRSKLKNRPSSEGHINK	2.41
LWVQGDIFRSKLKNRPSSEGWINK	2.42
LWVQGDIFRSKLKNRPSSEGTINK	3.13
LWVQGDIFRSKLKNRPSSEGFINK	2.46
LWVQGDIFRSKLKNRPSSEGLINK	2.24
LWVQGDIFRSKLKNRPSSEGDINK	4.21
LWVQGDIFRSKLKNRPSSEGGINK	2.84
LWVQGDIFRSKLKNRPSSEGVINK	2.41
LWVQGDIFRSKLKNRPSSEGSIWK	2.8
LWVQGDIFRSKLKNRPSSEGSIKK	2.69
LWVQGDIFRSKLKNRPSSEGSIEK	2.89
LWVQGDIFRSKLKNRPSSEGSIRK	2.4
LWVQGDIFRSKLKNRPSSEGSIYK	1.91
LWVQGDIFRSKLKNRPSSEGSILK	2.1
LWVQGDIFRSKLKNRPSSEGSISK	2.96
LWVQGDIFRSKLKNRPSSEGSICK	2.17

Variant	protein stability index
LWVQGDIFRSKLKNRPSSEGSIDK	2.8
LWVQGDIFRSKLKNRPSSEGSIIK	2.15
LWVQGDIFRSKLKNRPSSEGSIPK	3.06
LWVQGDIFRSKLKNRPSSEGSIHK	2.65
LWVQGDIFRSKLKNRPSSEGSIQK	2.31
LWVQGDIFRSKLKNRPSSEGSITK	3.06
LWVQGDIFRSKLKNRPSSEGSIAK	2.08
LWVQGDIFRSKLKNRPSSEGSIGK	3.05
LWVQGDIFRSKLKNRPSSEGSIFK	1.45
LWVQGDIFRSKLKNRPSSEGSIMK	2.15
LWVQGDIFRSKLKNRPSSEGSLNK	2.79
LWVQGDIFRSKLKNRPSSEGSENK	2.97
LWVQGDIFRSKLKNRPSSEGSPNK	2.63
LWVQGDIFRSKLKNRPSSEGSYNK	2.85
LWVQGDIFRSKLKNRPSSEGSDNK	3.2
LWVQGDIFRSKLKNRPSSEGSSNK	3.88
LWVQGDIFRSKLKNRPSSEGSMNK	3.02
LWVQGDIFRSKLKNRPSSEGSWNK	2.33
LWVQGDIFRSKLKNRPSSEGSFNK	2.51
LWVQGDIFRSKLKNRPSSEGSKNK	2.06
LWVQGDIFRSKLKNRPSSEGSHNK	3.32
LWVQGDIFRSKLKNRPSSEGSGNK	3.21
LWVQGDIFRSKLKNRPSSEGSRNK	3.2
LWVQGDIFRSKLKNRPSSEGSANK	3.1
LWVQGDIFRSKLKNRPSSEGSQNK	2.71
LWVQGDIFRSKLKNRPSSEGSTNK	3.39
LWVQGDIFRSKLKNRPSSEGSNNK	3.05

Variant	protein stability index
LWVQGDIFRSKLKNRPSSEGSCNK	2.59
LWVQGDIFRSKLKNRPSSEGSVNK	2.81
LWVQGDIFRSKLKNRPSSEWSINK	2.03
LWVQGDIFRSKLKNRPSSEVSINK	2.23
LWVQGDIFRSKLKNRPSSESSINK	2.58
LWVQGDIFRSKLKNRPSSETSINK	2.85
LWVQGDIFRSKLKNRPSSEGSINH	2.06
LWVQGDIFRSKLKNRPSSEGSING	2.26
LWVQGDIFRSKLKNRPSSEGSINN	2.79
LWVQGDIFRSKLKNRPSSEGSINY	1.73
LWVQGDIFRSKLKNRPSSEGSINV	1.63
LWVQGDIFRSKLKNRPSSEGSINW	2.47
LWVQGDIFRSKLKNRPSSEGSINF	1.75
LWVQGDIFRSKLKNRPSSEGSINR	2.52
LWVQGDIFRSKLKNRPSSEGSINP	2.46
LWVQGDIFRSKLKNRPSSEGSINA	2.31
LWVQGDIFRSKLKNRPSSEGSINI	1.8
LWVQGDIFRSKLKNRPSSEGSINT	2.83
LWVQGDIFRSKLKNRPSSEGSIND	2.79
LWVQGDIFRSKLKNRPSSEGSINQ	2.41
LWVQGDIFRSKLKNRPSSEGSINM	2.08
LWVQGDIFRSKLKNRPSSEGSINC	1.93
LWVQGDIFRSKLKNRPSSEGSINL	1.91
LWVQGDIFRSKLKNRPSSEGSINE	2.73
LWVQGDIFRSKLKNRPSSEGSINS	2.37
